{"source": "patent US20180284135A1", "proteins": {"B1": {"name": "human CatK of SEQ ID NO: 19 (Cathepsin K) (protein)", "chain": "APDSVDYRKKGYVTPVKNQGQCGSCWAFSSVGALEGQLKKKTGKLLNLSPQNLVDCVSENDGCGGGYMTNAFQYVQKNRGIDSEDAYPYVGQEESCMYNPTGKAAKCRGYREIPEGNEKALKRAVARVGPVSVAIDASLTSFQFYSKGVYYDESCNSDNLNHAVLAVGYGIQKGNKHWIIKNSWGENWGNKGYILMARNKNNACGIANLASFPKM"}}, "target": "T1, intact recombinant human POSTN (periostin, SEQ ID NO: 1)", "T1 chain": "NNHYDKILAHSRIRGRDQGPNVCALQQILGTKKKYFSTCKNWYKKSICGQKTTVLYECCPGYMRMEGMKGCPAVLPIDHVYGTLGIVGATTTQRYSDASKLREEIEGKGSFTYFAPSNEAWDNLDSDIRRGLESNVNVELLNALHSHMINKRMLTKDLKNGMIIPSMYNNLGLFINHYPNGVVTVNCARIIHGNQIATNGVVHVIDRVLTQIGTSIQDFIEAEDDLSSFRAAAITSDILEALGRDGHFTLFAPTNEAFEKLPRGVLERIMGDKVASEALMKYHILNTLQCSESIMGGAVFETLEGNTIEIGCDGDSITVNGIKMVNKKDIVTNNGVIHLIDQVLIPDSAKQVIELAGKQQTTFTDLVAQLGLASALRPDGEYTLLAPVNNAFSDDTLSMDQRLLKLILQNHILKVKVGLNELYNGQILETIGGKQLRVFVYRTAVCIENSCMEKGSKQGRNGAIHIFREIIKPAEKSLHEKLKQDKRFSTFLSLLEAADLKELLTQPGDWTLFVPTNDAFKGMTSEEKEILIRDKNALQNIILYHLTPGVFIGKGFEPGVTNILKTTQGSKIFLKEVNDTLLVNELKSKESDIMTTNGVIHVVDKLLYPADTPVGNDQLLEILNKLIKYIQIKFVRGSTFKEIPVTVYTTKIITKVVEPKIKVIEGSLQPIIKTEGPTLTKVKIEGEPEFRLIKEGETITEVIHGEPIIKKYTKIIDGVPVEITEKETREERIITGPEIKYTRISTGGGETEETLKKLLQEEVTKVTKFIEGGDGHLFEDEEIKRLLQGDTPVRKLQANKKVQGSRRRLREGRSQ", "data": [{"protein": "B1", "values": [{"measurement": "CatK digestion of human recombinant POSTN (SDS-PAGE, LC-MS/MS)", "result": "human POSTN is a substrate to CatK-dependent enzymatic digestion that is generating large amount of several peptides"}]}]}
